The values that follow come from paper PMC7584396.

The target in the test is prefusion conformation-stabilized SARS-CoV-2 spike ectodomain (S2P_(ecto)) with AviTag and 8x-His tag (SARS-CoV-2) (UniProt P0DTC2). As to the kind of experiment: ELISA.

Turning to “COV2-2130 (human mAb, recombinant IgG1) (antibody)”, the percent inhibition of hACE2 binding to S2P (ecto) at 500 ng/mL worked out at 100%.
